Source: PMC6327041, “Histone H3 binding to the PHD1 domain of histone demethylase KDM5A enables active site remodeling” (Nature Communications, 2019)
Positions count from the first letter of the chain named. In names and notes the source's numbering stands. Values belong to the binder of their own block, whether it stands above or below them. Where no end group is shown, it is not given here. 5‑FAM = 5-carboxyfluorescein; Me3 = trimethyl-lysine

Legend:
Conditions in all cases: both partners purified
[1] = biological target: T1, GST-PHD1 (S287-K347) D292A of KDM5A (human, UniProt P29375 287-347, D292A); assay: fluorescence polarisation; direct FP: 10 nM C-terminal fluorescently labeled H3 peptide with varying concentrations of GST-PHD1
T1 construct: PHD1 domain of histone demethylase KDM5A, human, residues S287-K347 with D292A; Cloned into pET41a; the vector may add further tags (surmise); also called S287-K347 PHD1 D292A; PHD1 D292A; source: E. coli BL21(DE3), purified (Glutathione Sepharose 4B, Superdex 75 SEC); not shown: GST, N-terminal, kept
T1 sequence (looked up): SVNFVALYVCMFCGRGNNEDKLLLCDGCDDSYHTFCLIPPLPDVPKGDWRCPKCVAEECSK

[2] = biological target: T2, GST-PHD1 (V291-K347) of KDM5A (human, UniProt P29375 291-347); assay: as above
T2 construct: PHD1 domain of histone demethylase KDM5A, human, residues V291-K347; Cloned into pET41a; the vector may add further tags (surmise); also called V291-K347 PHD1; PHD1_(KDM5A); source: E. coli BL21(DE3), purified (Glutathione Sepharose 4B, Superdex 75 SEC); not shown: GST, N-terminal, kept
T2 sequence (looked up): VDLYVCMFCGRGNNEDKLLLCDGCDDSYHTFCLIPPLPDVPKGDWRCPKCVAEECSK

[3] = biological target: T3, GST-PHD1 (S287-K347) of KDM5A (human, UniProt P29375 287-347); assay: as above
T3 construct: PHD1 domain of histone demethylase KDM5A, human, residues S287-K347; Cloned into pET41a; the vector may add further tags (surmise); also called S287-K347 PHD1; GST-PHD1 (Ser287-Lys347); source: E. coli BL21(DE3), purified (Glutathione Sepharose 4B, Superdex 75 SEC); not shown: GST, N-terminal, kept
T3 sequence (looked up): T1 sequence (looked up) with A6D

[4] = biological target: T1, GST-PHD1 (S287-K347) D292A of KDM5A; assay: fluorescence polarisation; competition-based FP: 2 µM GST-PHD1 with 10 nM C-terminal fluorescently labeled H3 peptide and different concentrations of unlabeled competitor peptide
[5] = biological target: T2, GST-PHD1 (V291-K347) of KDM5A; assay: as above
[6] = biological target: T3, GST-PHD1 (S287-K347) of KDM5A; assay: as above
KDM5A_(1-797) = biological target: T4, KDM5A_(1-797) (human, UniProt P29375 1-797); assay: HDX-MS; KDM5A_(1-797) with 50 µM FeSO4 and 100 µM N-OG, with 100 µM H3 10mer effector peptide against apo; 40 mM HEPES, 50 mM KCl, pH 7.9, 4 °C
T4 construct: histone demethylase KDM5A, human, residues 1-797; Cloned into pFASTBAC HTA; the His tag was removed with TEV protease; also called WT KDM5A_(1-797); KMD5A; source: Sf21 (baculovirus), purified (cobalt resin, TEV cleavage, S200 SEC); not shown: His tag, N-terminal, cleaved
T4 sequence (looked up): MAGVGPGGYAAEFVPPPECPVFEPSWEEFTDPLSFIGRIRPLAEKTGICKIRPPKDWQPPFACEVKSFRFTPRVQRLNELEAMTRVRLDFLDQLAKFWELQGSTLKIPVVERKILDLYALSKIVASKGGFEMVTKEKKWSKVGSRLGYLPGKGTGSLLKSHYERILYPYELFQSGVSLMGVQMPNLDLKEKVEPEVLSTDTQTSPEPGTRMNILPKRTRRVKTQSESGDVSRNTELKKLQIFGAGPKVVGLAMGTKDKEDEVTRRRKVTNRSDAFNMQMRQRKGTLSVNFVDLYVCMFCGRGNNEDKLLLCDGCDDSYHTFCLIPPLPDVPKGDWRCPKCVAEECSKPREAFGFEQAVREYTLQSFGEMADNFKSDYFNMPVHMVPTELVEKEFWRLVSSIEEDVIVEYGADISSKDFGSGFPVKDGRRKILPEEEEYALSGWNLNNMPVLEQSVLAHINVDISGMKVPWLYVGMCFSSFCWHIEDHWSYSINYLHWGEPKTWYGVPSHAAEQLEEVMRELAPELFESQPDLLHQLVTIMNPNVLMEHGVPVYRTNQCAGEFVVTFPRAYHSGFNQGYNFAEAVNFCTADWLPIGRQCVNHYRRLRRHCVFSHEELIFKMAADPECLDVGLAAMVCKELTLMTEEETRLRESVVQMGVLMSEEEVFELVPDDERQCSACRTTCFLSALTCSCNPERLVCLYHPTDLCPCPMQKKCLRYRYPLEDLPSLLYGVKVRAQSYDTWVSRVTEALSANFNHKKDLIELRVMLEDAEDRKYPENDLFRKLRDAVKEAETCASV

B2: H3K4A 10mer peptide (peptide, UniProt P68431 2-11, looked up)
peptide: ARTAQTARKS
notes: histone H3 N-terminal tail, 10mer Ala1-Ser10 with K4A
Kd [4]: 22.2 ± 5.7 µM
Kd [5]: 2.11 ± 0.27 µM
Kd [6]: 1.58 ± 0.19 µM

B3: unmodified H3 10mer effector peptide (H3 Ala1-Ser10) (peptide, UniProt P68431 2-11, looked up)
peptide: ARTKQTARKS
notes: histone H3 N-terminal tail, 10mer Ala1-Ser10, unmodified, unlabelled; also called H3 10mer peptide; PHD1-specific H3 10mer peptide
binding result (KDM5A_(1-797)): binds

Other lines, results leading:

Kd [1]: 5.2 ± 0.26 µM
Kd [2]: 1.89 ± 0.16 µM
Kd [3]: 0.68 ± 0.04 µM
B1: 5-carboxyfluorescein (5-FAM) conjugated H3 10mer peptide (peptide, UniProt P68431 2-11, looked up)
peptide: ARTKQTARKS-{5‑FAM}
notes: histone H3 N-terminal tail, 10mer Ala1-Ser10, unmodified; also called H3K4me0; C-terminal fluorescently labeled H3 peptide

Kd [4]: 511 ± 281 µM
Kd [5]: 35.5 ± 7.5 µM
Kd [6]: 34 ± 5.5 µM
B4: H3K4me3 10mer peptide (peptide, UniProt P68431 2-11, looked up)
peptide: ARTK(Me3)QTARKS
notes: histone H3 N-terminal tail, 10mer Ala1-Ser10; also called tri-methylated H3K4 peptide
